Results on five molecules are retold here after patent US20210253716A1 (Regeneron, published 2021).

The target in experiment [1] is T1, human ACVR1 extracellular domain expressed with a C-terminal mouse IgG2a Fc tag (human).
T1 construct: also called hACVR1-mFc
T1 chain: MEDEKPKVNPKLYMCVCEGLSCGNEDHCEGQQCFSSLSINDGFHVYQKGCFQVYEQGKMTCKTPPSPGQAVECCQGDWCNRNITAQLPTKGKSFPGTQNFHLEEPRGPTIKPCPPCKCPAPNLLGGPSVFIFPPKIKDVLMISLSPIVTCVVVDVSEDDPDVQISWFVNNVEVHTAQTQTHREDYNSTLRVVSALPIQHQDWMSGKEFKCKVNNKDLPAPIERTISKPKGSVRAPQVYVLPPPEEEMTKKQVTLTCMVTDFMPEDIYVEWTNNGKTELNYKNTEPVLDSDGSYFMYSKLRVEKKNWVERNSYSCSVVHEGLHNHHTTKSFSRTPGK
The experiment in a line: SPR (Biacore), mAb captured, 37 C. The procedure: (§1) Equilibrium dissociation constants (KD) for ACVR1 binding to purified anti-ACVR1 monoclonal antibodies were determined using a real-time surface plasmon resonance biosensor (SPR-Biacore), Biacore 4000. All binding studies were performed in 10 mM HEPES, 150 mM NaCl, 3 mM EDTA, and 0.05% v/v surfactant Tween-20, pH 7.4 (HBS-ET) running buffer at 25° C. and 37° C. The Biacore CM5 sensor surface was first derivatized by amine coupling with a monoclonal mouse anti-human Fc antibody (GE, #BR-1008-39 or REGN2567) to capture anti-ACVR1 monoclonal antibodies. […] ACVR1 reagents were then injected over anti-human Fc captured anti-ACVR1 monoclonal antibody surface for 2.5-3 minutes at a flow rate of 30 μL/minute, while the dissociation of monoclonal antibody bound ACVR1 reagent was monitored for 10-15 minutes in HBS-ET running buffer. Kinetic association rate constant (kₐ) and dissociation rate constant (kd) were determined by fitting the real-time sensorgrams to a 1:1 binding model using Scrubber 2.0c curve-fitting software. Binding dissociation equilibrium constants (KD) and dissociative half-lives (t½) were calculated from the kinetic rate constants as: […]

Experiment [2] has as its target T2, mouse ACVR1 extracellular domain expressed with a C-terminal myc-myc-hexahistidine tag (mouse).
T2 construct: also called mACVR1-MMH; mACVR1-mmh
T2 chain: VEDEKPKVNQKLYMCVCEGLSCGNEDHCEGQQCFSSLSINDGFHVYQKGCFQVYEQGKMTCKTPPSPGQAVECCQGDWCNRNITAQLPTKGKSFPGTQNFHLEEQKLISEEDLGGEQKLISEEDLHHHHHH
The experiment in a line: SPR (Biacore), mAb captured, 37 C. The procedure:
as §1

Experiment [3] has as its target T3, human ACVR1 extracellular domain expressed with a C-terminal myc-myc-hexahistidine tag (human).
T3 construct: also called hACVR1-MMH
T3 chain: T2 chain with V1M, Q10P
The experiment can be described thus: SPR (Biacore), mAb captured, 37 C. The procedure: as §1

In experiment [4] the target is T4, full length human ACVR1 (R206H) on HEK293/BRE-luc/hACVR1-R206H-clone H2 cells (human, UniProt Q04771 21-509).
T4 construct: also called HEK293/hACVR1-R206H
T4 sequence: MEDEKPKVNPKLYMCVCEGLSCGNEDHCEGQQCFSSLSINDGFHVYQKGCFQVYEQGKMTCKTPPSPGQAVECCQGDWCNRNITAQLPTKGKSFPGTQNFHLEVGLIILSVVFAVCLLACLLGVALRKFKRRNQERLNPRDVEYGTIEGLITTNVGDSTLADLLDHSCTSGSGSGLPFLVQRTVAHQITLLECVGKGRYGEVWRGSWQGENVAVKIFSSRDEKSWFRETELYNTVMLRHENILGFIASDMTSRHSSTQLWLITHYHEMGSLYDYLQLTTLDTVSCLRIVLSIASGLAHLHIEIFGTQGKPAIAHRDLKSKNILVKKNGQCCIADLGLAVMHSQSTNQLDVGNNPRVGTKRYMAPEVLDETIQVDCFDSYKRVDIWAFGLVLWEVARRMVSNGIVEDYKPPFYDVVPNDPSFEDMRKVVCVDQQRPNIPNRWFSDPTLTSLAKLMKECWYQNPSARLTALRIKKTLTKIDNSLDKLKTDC
The experiment in a line: flow cytometry, 70 nM antibody, HEK293/hACVR1-R206H cells. The method, then: Cells were fixed using BD CytoFix™ (Becton Dickinson, #554655) and analyzed on either Hypercyt® or IQue® Flow Cytometers (Intellicyt®). Unstained and secondary antibody alone controls were also tested for all cell lines. The results were analyzed using ForeCyt® (IntelliCyt®) software to determine the geometric means of fluorescence for viable cells and binding ratios were calculated by normalizing the geometric mean value of the test condition by the geometric mean value of the corresponding unstained cells.

Experiment [5] deals with T1, human ACVR1 extracellular domain …. The experiment in a line: SPR (Biacore), mAb captured, 25 C. The method, then: as §1
The target in experiment [6] is T2, mouse ACVR1 extracellular domain …. The experiment in a line: SPR (Biacore), mAb captured, 25 C. The method, then:
as §1

Experiment [7] concerns the target T3, human ACVR1 extracellular domain …. The experiment can be described thus: SPR (Biacore), mAb captured, 25 C. The method, then:
as §1

Experiment [8] has as its target T4, full length human ACVR1 (R206H) on …. The experiment in a line: cell-based or functional assay.

Positions count from the first letter of the chain named.

B1: mAb29233 (antibody, human IgG4 S228P, kappa, V domains shown)
VH: QVQLVQSGAEVKKPGASVKVSCKASGYTFTSYGISWVRQAPGQGLEWMGWISAYNGNTIYAQKFQGRVTMTTDTSTSTAYMELRSLRSDDTAVYYCARDINWYFDLWGRGTLVTVSS
VL: DIQMTQSPSSLSASVGDRVTITCRASQGIRNDLGWFQQKPGKAPKRLIYAASSLQSGVPSRFSGSGSGTEFTLTISSLQPEDFATYYCLQHNSYPWTFGQGTKVEIKR
In the case of B1, the “100 nM Ag Bound (RU)” value in experiment [1] was determined as 3 RU; in experiment [5], 2 RU. Further, the “900 nM or 100 nM Ag Bound (RU)” value in experiment [2] was 1 RU; in experiment [3], 3 RU; in experiment [6] it was 1 RU; in experiment [7], 1 RU. Further, the “MFI - Normalized to Unstained Control” value in experiment [4] is 5 fold. Besides, the figures for the binding result in experiment [5], in experiment [6] and in experiment [7] were “no binding (tested: 100 nM)”, “no binding (tested: 900 nM or 100 nM)” and “no binding (tested: 900 nM or 100 nM)”, respectively.

B2: mAb29261 (antibody, human IgG4 S228P, kappa, V domains shown)
VH: EVQLVESGGNLVQPGGSLRLSCAASGFTFSNYAMSWVRQAPGKGLEWVSGITGNGINTYYSVSVKGRFTISRDNSKNTVFLQMNSLRAEDTAIYYCVKERGHSWFGDWFDPWGQGTLVTVSS
VL: B1 VL with F36Y
Consider B2, for which the “900 nM or 100 nM Ag Bound (RU)” value in experiment [2] was 2 RU; in experiment [3], 5 RU; in experiment [6], -1 RU; in experiment [7], 0 RU. Moreover, in experiment [3], the binding result is listed as “no binding (tested: 900 nM or 100 nM)”. Also, the “MFI - Normalized to Unstained Control” value in experiment [4] is 2 fold.

B3: mAb27247 (antibody, human IgG4 S228P, kappa, V domains shown)
VH: EIQLVESGGDLVQPGGSLKLSCAASGFTFSDSAMHWVRQASGKGLEWVGRIRNKANTYATSYAASVKGRFTVSTDDSKTTAYLQMRYLKIEDTAIYYCTSDQFDYWGQGTLVTVSS
VL: DVVMTQSPLSLSATLGQPASISCRSSQSLVYSDGITYLTWFQQRPGQSPTRLIYQVSNRDSGVPDRFNGSGSGTDFTLNISRVEAEDVGFYYCMEGTHWPWTFGQGTKVELKR
notes: also called H4H27247
For B3, in experiment [1], the “100 nM Ag Bound (RU)” value turned out to be 219 RU, the Kd came to 1.39 nM, the koff turned out to be 0.000515 s⁻¹ and the kon was 371000 M⁻¹ s⁻¹. The molecule further came in with a t½ in experiment [1] of 22 min. In addition, in experiment [2], the “900 nM or 100 nM Ag Bound (RU)” value stood at 4 RU. Moreover, in experiment [3], the “900 nM or 100 nM Ag Bound (RU)” value came out at 67 RU; the affinity, expressed as Kd, was 19.3 nM; the koff stood at 0.00404 s⁻¹; the kon is 209000 M⁻¹ s⁻¹. In addition, the t½ in experiment [3] is 2.9 min. Also, the “MFI - Normalized to Unstained Control” value in experiment [4] was 1660 fold. In experiment [5], the “100 nM Ag Bound (RU)” value was determined as 186 RU, the Kd stood at 0.787 nM, the off-rate (koff) was found to be 0.00018 s⁻¹ and the kon is 229000 M⁻¹ s⁻¹. The t½ in experiment [5] turned out to be 64 min. Moreover, in experiment [6], the “900 nM or 100 nM Ag Bound (RU)” value was found to be 3 RU and the binding result is reported as “no binding (tested: 900 nM or 100 nM)”. In experiment [7], the “900 nM or 100 nM Ag Bound (RU)” value stood at 52 RU, the Kd stood at 10.4 nM, the koff was 0.00119 s⁻¹ and the kon worked out at 115000 M⁻¹ s⁻¹. The molecule also registered a t½ in experiment [7] of 10 min.

B4: mAb29266 (antibody, human IgG4 S228P, kappa, V domains shown)
VH: QVQLVESGGGVVQPGRSLRLSCEVSGFTFSNYGMHWVRQAPGKGLEWVAVVSYDGSNKYYTDSVKGRFTISRDNSKNTLSLQMNSLRAEDTAVYYCAKDRGITGTSGGVFDIWGQGTMVTVSS
VL: AIRMTQSPSSFSATTGDRVTITCRASQGISSHLAWYQQKPGKAPKFLIYVASTLQSGVPSRFSGSGSGTDFTLTISSLQSEDFATYYCQQYYSYPPTFGQGTKVEIKR
B4: in experiment [1], the “100 nM Ag Bound (RU)” value is 205 RU, the Kd was 3.88 nM, the koff came out at 0.000911 s⁻¹ and the kon was 235000 M⁻¹ s⁻¹. For the same molecule, the t½ in experiment [1] amounted to 13 min. Moreover, in experiment [3], the “900 nM or 100 nM Ag Bound (RU)” value is 38 RU, binding was characterised by a dissociation constant (Kd) of 191 nM, the koff was 0.0299 s⁻¹ and the kon turned out to be 156000 M⁻¹ s⁻¹. In experiment [3], the t½ came out at 0.39 min. Also, in experiment [8], the “% Inhibition, BRE-luc reporter, 2 nM hBMP7” value is 93% and the “IC50 [M], BRE-luc reporter, 2 nM hBMP7” value stood at 1.9e-09 M. Besides, the “MFI - Normalized to Unstained Control” value in experiment [4] worked out at 1640 fold. Also, in experiment [5], the “100 nM Ag Bound (RU)” value amounted to 178 RU; the affinity, expressed as Kd, was 5.43 nM; the koff was 0.00062 s⁻¹; the kon came out at 114000 M⁻¹ s⁻¹. Moreover, the t½ in experiment [5] amounted to 19 min. Besides, in experiment [7], the “900 nM or 100 nM Ag Bound (RU)” value came out at 44 RU, binding was put at a Kd of 109 nM, the dissociation rate constant (koff) was 0.00679 s⁻¹ and the kon was 62100 M⁻¹ s⁻¹. This molecule registered a t½ in experiment [7] of 1.7 min.

B5: mAb29256 (antibody, human IgG4 S228P, kappa, V domains shown)
VH: B2 VH with I56V, V79L, Q82E
VL: DIQMTQSPSSLSASVGDRVTITCRSSQSVISYLNWYQQKPGKAPKLLIFGASSLISGVPSRFSGSGSGTDFTLTIVSLQPEDFAVYFCQQNYLPPLTFGGGTKVEIKR
notes: also called mAb29256P
In the case of B5, the “100 nM Ag Bound (RU)” value in experiment [1] is 3 RU; in experiment [5] it was -1 RU. Besides, the “900 nM or 100 nM Ag Bound (RU)” value was 0 RU in experiment [2], 0 RU in experiment [3], -3 RU in experiment [6] and -2 RU in experiment [7]. Also, the “MFI - Normalized to Unstained Control” value in experiment [4] amounted to 3 fold.
